PMC2635920 (Nature structural & molecular biology, 2009)

T1: Tip20p, full-length (residues 1-701) (S. cerevisiae, UniProt P33891 1-701)
T1 sequence (looked up): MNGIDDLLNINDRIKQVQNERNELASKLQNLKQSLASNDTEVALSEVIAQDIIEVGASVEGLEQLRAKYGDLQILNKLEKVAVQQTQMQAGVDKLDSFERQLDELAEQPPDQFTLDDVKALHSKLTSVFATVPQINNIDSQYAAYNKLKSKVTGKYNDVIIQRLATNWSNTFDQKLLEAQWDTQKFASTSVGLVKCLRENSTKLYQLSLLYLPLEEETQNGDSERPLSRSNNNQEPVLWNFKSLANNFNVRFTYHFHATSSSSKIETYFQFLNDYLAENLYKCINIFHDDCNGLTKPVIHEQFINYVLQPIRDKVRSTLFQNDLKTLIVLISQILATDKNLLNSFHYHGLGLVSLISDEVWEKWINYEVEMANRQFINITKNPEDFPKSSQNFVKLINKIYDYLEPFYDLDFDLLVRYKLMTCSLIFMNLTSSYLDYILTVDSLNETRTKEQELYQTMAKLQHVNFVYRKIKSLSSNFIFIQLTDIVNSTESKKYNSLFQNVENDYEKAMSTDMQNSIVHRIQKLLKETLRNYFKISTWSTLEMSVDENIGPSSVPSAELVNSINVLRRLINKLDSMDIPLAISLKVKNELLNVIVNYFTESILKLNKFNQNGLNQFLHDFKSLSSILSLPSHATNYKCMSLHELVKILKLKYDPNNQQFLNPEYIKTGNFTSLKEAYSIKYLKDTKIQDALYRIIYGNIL

T2: Tip20ΔN (Tip20p residues 82-701) (S. cerevisiae, UniProt P33891 82-701)
T2 sequence (looked up): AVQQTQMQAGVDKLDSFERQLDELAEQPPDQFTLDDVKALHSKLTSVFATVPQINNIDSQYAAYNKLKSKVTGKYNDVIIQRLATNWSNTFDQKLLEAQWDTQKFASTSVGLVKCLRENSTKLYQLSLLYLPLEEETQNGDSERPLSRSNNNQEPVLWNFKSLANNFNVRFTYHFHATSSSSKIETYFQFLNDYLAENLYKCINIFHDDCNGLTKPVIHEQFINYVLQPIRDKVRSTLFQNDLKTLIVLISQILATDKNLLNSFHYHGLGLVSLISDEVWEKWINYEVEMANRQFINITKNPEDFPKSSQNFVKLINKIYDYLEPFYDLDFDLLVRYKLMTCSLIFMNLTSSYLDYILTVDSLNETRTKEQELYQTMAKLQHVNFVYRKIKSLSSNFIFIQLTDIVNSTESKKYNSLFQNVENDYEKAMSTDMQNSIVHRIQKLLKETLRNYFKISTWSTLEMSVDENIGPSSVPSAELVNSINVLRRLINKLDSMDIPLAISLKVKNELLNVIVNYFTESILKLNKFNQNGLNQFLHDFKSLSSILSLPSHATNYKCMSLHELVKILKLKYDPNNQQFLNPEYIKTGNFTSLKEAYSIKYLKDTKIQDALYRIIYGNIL

B1: Dsl1ΔC (Dsl1p residues 1-361) (domain or fragment, S. cerevisiae, UniProt P53847 1-361, looked up)
chain: MESLFPNKGEIIRELLKDPLILKNDSKRSNGSELELDSSDLLQREAILANELNILDNLKTFLNLIKEVKTNLNILELENCYYSLQSLRKKMRNNAAYLKQSFNFQQSISTYVDTLHLELVSTLYKILTNGFWKITENSIQFTPTVEWGKDKVHIEYDTFMDFVAQQYFPKGSLDNQAWFILDMTSADSQEQVRAKLNTIMKEYMNLSRIVSMIKNSIFISGKEISYENEKNILVFSKSSSHGQHCVSTVLTSFEAVCDFMLDGLAFRDRKTLSYELGPLFNTEFTKFVKNNASIILESLDSPLKNLVSVINNKLTRLVAKSEVTNWTHSGKEIQDLLMNKQLYYNLLLDKVLESHISEIRS
B2: Sec20ΔC (cytoplasmic domain of Sec20p, residues 1-275) (domain or fragment, S. cerevisiae, UniProt P28791 1-275, looked up)
chain: MVVTFLQDLEVLQDALLNNLQKLSAISRRKESGESKHDNKDSFAAIANEHNDEEEEIEFEDLVNIIESKVSDFESVLKCSIVEMTYKYPELKLQWEKSPRYDQCDKLHIVKLDKQMNEDIYAQLVEELDFVLQFVDWFYCYRLKVKEILRQHHKRDLAWNDEKRDRAIKFHAVDYDKLHQGTSSSSSLTSTSMEKASTREKLLSKTKQLTNNLVRGNQILQSGILQSDLNLDELRAQTNSLTQIDDKYTQFETVFKKTADLVKVLENASHQEKRD

Assays:
[1] = target: T1, Tip20p, full-length (residues 1-701); assay: AUC
[2] = target: B1; assay: pull-down
[3] = target: intact Dsl1p complex (Tip20p-Dsl1p-Sec39p) (S. cerevisiae, UniProt P33891 1-701; P53847 1-754; Q12745 1-709); assay: SEC
[4] = target: T2, Tip20ΔN (Tip20p residues 82-701); assay: SEC
[5] = target: T1, Tip20p, full-length (residues 1-701); assay: SEC

intact Dsl1p complex (Tip20p-Dsl1p-Sec39p), sequence (Q12745 whole entry, the tested form may be a part, one chain of several): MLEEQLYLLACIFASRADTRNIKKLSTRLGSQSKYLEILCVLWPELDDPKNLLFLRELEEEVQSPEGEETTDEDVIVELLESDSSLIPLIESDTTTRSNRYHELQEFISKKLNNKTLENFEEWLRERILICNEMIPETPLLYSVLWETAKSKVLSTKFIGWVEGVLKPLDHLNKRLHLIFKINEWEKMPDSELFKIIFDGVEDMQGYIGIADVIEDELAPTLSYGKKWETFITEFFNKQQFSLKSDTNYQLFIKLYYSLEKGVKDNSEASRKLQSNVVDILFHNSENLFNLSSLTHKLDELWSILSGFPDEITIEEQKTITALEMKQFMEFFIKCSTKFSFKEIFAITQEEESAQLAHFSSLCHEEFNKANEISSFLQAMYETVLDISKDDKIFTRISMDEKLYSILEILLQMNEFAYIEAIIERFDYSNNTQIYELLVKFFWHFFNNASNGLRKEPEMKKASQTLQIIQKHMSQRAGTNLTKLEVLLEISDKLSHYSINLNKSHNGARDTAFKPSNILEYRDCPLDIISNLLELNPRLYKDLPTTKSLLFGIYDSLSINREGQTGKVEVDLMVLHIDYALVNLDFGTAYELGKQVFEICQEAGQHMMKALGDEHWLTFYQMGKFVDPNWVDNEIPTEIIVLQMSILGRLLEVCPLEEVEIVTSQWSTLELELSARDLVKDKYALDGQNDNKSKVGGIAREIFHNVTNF

Binder: B1
- stoichiometry N [1]: 1

Binder: MNGIDDLLNINDRIKQVQNERNELASKLQNLKQSLASNDTEVA (domain or fragment, S. cerevisiae, UniProt P33891 1-43, looked up) [GST-Tip20p (residues 1-43)]
- binding result [2]: binds

Binder: B2
- binding result [3]: binds
- binding result [4]: binds
- binding result [5]: binds
